In PMC10628199, “Structural and functional investigations of syn-copalyl diphosphate synthase from Oryza sativa” (Communications Chemistry, 2023):
“And” between values parts separate entries of the source, which are not always exact repeats. Equal values may be shown once.

What was measured:
[1] = molecular target: T1, OsCyc1^69–767 (Oryza sativa, UniProt Q0JF02, D367A); settings: 0.1 mM GGPP soaked; 20 mM Tris-HCl pH 8.0, 200 mM NaCl, 2 mM DTT, 5 mM MgCl2; active site between beta and gamma domains
T1 construct: gene CPS4
T1 sequence (Q0JF02 69-767 D367A): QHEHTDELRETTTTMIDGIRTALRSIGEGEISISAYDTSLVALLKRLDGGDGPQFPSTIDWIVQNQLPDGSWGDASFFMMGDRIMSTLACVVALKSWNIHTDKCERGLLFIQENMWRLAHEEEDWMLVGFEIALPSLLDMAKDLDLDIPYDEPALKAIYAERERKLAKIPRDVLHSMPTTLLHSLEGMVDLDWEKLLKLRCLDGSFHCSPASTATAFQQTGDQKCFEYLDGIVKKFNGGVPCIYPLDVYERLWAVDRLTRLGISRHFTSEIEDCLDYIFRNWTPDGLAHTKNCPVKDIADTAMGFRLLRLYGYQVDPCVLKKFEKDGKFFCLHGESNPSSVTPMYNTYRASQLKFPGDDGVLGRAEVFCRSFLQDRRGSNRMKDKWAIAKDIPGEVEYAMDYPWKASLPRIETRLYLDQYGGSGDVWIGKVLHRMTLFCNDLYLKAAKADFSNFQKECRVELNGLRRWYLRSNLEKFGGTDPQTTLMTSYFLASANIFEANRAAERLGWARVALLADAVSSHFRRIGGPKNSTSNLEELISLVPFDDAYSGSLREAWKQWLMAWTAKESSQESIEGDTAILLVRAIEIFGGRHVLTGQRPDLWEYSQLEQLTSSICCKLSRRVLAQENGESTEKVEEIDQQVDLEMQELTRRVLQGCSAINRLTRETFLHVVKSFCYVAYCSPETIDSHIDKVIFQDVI

[2] = molecular target: T2, OsCyc1 (full-length) (Oryza sativa, UniProt Q0JF02); settings: pH 8.0, 16 °C, 2 h, no added Mg2+; product syn-CPP
T2 construct: gene CPS4
T2 sequence (Q0JF02 whole entry): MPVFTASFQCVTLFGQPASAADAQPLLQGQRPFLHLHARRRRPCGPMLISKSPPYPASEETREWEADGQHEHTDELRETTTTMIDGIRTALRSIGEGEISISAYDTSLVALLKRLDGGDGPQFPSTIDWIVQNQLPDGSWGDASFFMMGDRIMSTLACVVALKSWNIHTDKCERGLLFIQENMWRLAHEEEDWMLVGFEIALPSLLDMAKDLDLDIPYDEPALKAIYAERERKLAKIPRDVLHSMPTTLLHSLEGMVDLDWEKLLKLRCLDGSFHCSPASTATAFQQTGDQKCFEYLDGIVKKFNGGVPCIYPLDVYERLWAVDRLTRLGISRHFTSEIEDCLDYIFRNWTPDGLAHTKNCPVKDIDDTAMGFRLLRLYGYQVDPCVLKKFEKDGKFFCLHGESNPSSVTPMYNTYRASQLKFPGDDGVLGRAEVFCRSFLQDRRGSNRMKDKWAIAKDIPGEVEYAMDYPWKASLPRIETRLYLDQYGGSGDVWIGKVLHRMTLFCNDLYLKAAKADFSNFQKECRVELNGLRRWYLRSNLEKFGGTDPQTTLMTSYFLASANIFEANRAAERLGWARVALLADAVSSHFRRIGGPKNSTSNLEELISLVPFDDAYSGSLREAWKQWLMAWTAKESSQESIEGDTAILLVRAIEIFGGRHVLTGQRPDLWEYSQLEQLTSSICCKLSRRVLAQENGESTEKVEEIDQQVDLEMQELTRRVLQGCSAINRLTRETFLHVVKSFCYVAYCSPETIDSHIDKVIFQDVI

[3] = molecular target: OsCyc1^D367A mutant (in complex with the substrate GGPP) (Oryza sativa) (UniProt Q0JF02); experiment: cryo-EM structure; OsCyc1 D367A at 3 mg/mL in buffer B, soaked with 0.1 mM GGPP; hexamer used as initial model for 3D classification; 4.0 Å
[4] = molecular target: the molecule itself; experiment: cryo-EM structure; WT OsCyc1 at 1.8 mg/mL in buffer B (20 mM Tris-HCl pH 8.0, 200 mM NaCl, 2 mM DTT, 5 mM MgCl2); dimers, tetramers and hexamers selected separately after 2D classification
[5] = molecular target: the molecule itself; experiment: crystal structure; OsCyc1 69-767 at 10 mg/mL, hanging drop, 18 °C, 2% 1,4-dioxane, 0.1 M Tris pH 8.0, 15% PEG 3,350; space group P212121, hexamer in the asymmetric unit; 3.5 Å

Molecule: CC(C)=CCC/C(C)=C/CC/C(C)=C/CC/C(C)=C/COP(=O)(O)OP(=O)(O)O [GGPP]
- cryo-EM structure of the complex, 4.0 A [1]: cryo-EM structure of the OsCyc1^D367A mutant in complex with substrate GGPP
- GC-MS of dephosphorylated product [2]: OsCyc1 catalyzes GGPP to form syn-CPP

Molecule: OsCyc1^D367A mutant (in complex with the substrate GGPP) (from UniProt Q0JF02 69-767) (enzyme)
- stoichiometry N [3]: 6

B1: OsCyc1, wild type, as used for cryo-EM (enzyme, Oryza sativa)
chain: LISKSPPYPASEETREWEADGQHEHTDELRETTTTMIDGIRTALRSIGEGEISISAYDTSLVALLKRLDGGDGPQFPSTIDWIVQNQLPDGSWGDASFFMMGDRIMSTLACVVALKSWNIHTDKCERGLLFIQENMWRLAHEEEDWMLVGFEIALPSLLDMAKDLDLDIPYDEPALKAIYAERERKLAKIPRDVLHSMPTTLLHSLEGMVDLDWEKLLKLRCLDGSFHCSPASTATAFQQTGDQKCFEYLDGIVKKFNGGVPCIYPLDVYERLWAVDRLTRLGISRHFTSEIEDCLDYIFRNWTPDGLAHTKNCPVKDIDDTAMGFRLLRLYGYQVDPCVLKKFEKDGKFFCLHGESNPSSVTPMYNTYRASQLKFPGDDGVLGRAEVFCRSFLQDRRGSNRMKDKWAIAKDIPGEVEYAMDYPWKASLPRIETRLYLDQYGGSGDVWIGKVLHRMTLFCNDLYLKAAKADFSNFQKECRVELNGLRRWYLRSNLEKFGGTDPQTTLMTSYFLASANIFEANRAAERLGWARVALLADAVSSHFRRIGGPKNSTSNLEELISLVPFDDAYSGSLREAWKQWLMAWTAKESSQESIEGDTAILLVRAIEIFGGRHVLTGQRPDLWEYSQLEQLTSSICCKLSRRVLAQENGESTEKVEEIDQQVDLEMQELTRRVLQGCSAINRLTRETFLHVVKSFCYVAYCSPETIDSHIDKVIFQDVI
notes: syn-copalyl diphosphate synthase OsCyc1 (OsCPS4), Oryza sativa, wild type; the cryo-EM methods say only 'OsCyc1'); the deposited entries tell the construct; Probably the same protein as m1 or m2; also called WT OsCyc1; source: E. coli BL21(DE3), purified; in buffer B
- stoichiometry N [4]: 2 and 4 and 6

B2: OsCyc1^69–767 (N-terminal truncation variant of syn-copalyl diphosphate synthase from Oryza sativa) (enzyme, UniProt Q0JF02 69-767, looked up)
chain: QHEHTDELRETTTTMIDGIRTALRSIGEGEISISAYDTSLVALLKRLDGGDGPQFPSTIDWIVQNQLPDGSWGDASFFMMGDRIMSTLACVVALKSWNIHTDKCERGLLFIQENMWRLAHEEEDWMLVGFEIALPSLLDMAKDLDLDIPYDEPALKAIYAERERKLAKIPRDVLHSMPTTLLHSLEGMVDLDWEKLLKLRCLDGSFHCSPASTATAFQQTGDQKCFEYLDGIVKKFNGGVPCIYPLDVYERLWAVDRLTRLGISRHFTSEIEDCLDYIFRNWTPDGLAHTKNCPVKDIDDTAMGFRLLRLYGYQVDPCVLKKFEKDGKFFCLHGESNPSSVTPMYNTYRASQLKFPGDDGVLGRAEVFCRSFLQDRRGSNRMKDKWAIAKDIPGEVEYAMDYPWKASLPRIETRLYLDQYGGSGDVWIGKVLHRMTLFCNDLYLKAAKADFSNFQKECRVELNGLRRWYLRSNLEKFGGTDPQTTLMTSYFLASANIFEANRAAERLGWARVALLADAVSSHFRRIGGPKNSTSNLEELISLVPFDDAYSGSLREAWKQWLMAWTAKESSQESIEGDTAILLVRAIEIFGGRHVLTGQRPDLWEYSQLEQLTSSICCKLSRRVLAQENGESTEKVEEIDQQVDLEMQELTRRVLQGCSAINRLTRETFLHVVKSFCYVAYCSPETIDSHIDKVIFQDVI
notes: plastid targeting peptide removed; codon-optimized synthetic gene; monomer 80.8 kDa; Cloned in pET-24a(+) between NdeI and XhoI 'including a His-tag'; this cloning would usually give a C-terminal His6 (surmise); also called truncated OsCyc1; pseudo-mature protein
- stoichiometry N [5]: 6
